Test results: patent publication US20250064951A1, “DENDRITIC POLYELECTROLYTE ZWITTERIONS, JANUS-TYPE CONJUGATE COMPRISING SAME AND USES THEREOF” (ArtProBio Co., Ltd., priority 2023, published 2025)
Ends that are not written are not given here.

What was measured:
[1] = system: HCT116 cells; assay: Cytotoxicity, WST-8 assay in HCT116 cells; type: cell-based, human; settings: 0, 1.25, 2.5, 5, 10 μM, 4 hours
Procedure: The cytotoxicity of the G2 Janus-type dendritic polyelectrolyte zwitterions according to the present disclosure (JDPZ, (+M)2(−M)2 conjugate_1) was analyzed using HCT116 cells (human colon cancer cells). Specifically, HCT116 cells were subcultured in DMEM supplemented with 10% FBS (fetal bovine serum), dispensed into each well at 1×10^4 cells/well, and cultured at 37° C. for 24 hours. The cells were treated with the samples (Example 5-1 and Comparative Examples 1-1 to 1-3) at various concentrations (0, 1.25, 2.5, 5, 10 μM), respectively, and incubated at 37° C. for 4 hours. WST-8 solution was added to the cultured cells, and absorbance was measured at 450 nm with a microplate reader (Perkin-Elmer, USA) 4 hours later.

[2] = system: HCT116 cells; assay: Intracellular delivery efficiency in HCT116 cells by flow cytometry; type: cell-based, human; settings: summary statement, b342
Procedure: To confirm the intracellular delivery efficiency, HCT116 cells were subcultured in DMEM supplemented with 10% FBS (fetal bovine serum), dispensed into each well at 1-3×10^4 cells/well, and cultured at 37° C. for 24 hours. The cells were treated with the (+6)2(−6)2 conjugate_FAM prepared in Example 6-2 at a concentration of 10 μM and incubated at 37° C. for 4 hours. Afterwards, the cells were washed with Dulbecco's phosphate-buffered saline (DPBS), trypsinized, resuspended in DPBS supplemented with 10% cell dissociation buffer (GIBCO) and 1% FBS, and then analyzed using a flow cytometer (BD LSR II SORT flow cytometer, BD Bioscience, USA) for analysis of intracellular fluorescence.

[3] = target: BSA (Bos taurus, UniProt P02769); assay: EMSA of non-fouling property for proteins (BSA); type: binding
From the text: The mixing ratio was R/B ratio, wherein the R/B ratio was arginine/BSA ratio. […] For visualization, the bands were stained with Coomassie brilliant blue R-250.
The mixing ratio was peptide/BSA ratio, wherein the peptide/BSA ratio was peptide/BSA (w/w). […] For visualization, the bands were stained with Coomassie brilliant blue R-250.

[4] = DLS size, size distribution and zeta potential; type: physicochemical; settings: for Diameter (nm) in DW / Diameter (nm) in PBS: DLS
[5] = system: yeast rRNA; assay: EMSA of non-fouling property for rRNA; type: binding; settings: 200 ng yeast rRNA; various peptide/RNA (w/w) ratios; room temperature 1 hour
Procedure: It was confirmed through EMSA (electrophoretic mobility shift assay) that the dendrimer structure of the present disclosure has non-fouling property for various genetic materials present in the body when administered in vivo. 200 ng of yeast rRNA (ribosomal RNA) was prepared as a model genetic material and mixed with the Janus-type dendritic polyelectrolyte zwitterion of Example 5-4 (JDPZ ((+6)2(−6)2 conjugate_1)) at various concentration ratios. The mixing ratio was peptide/RNA ratio, wherein the peptide/RNA ratio was peptide/RNA (w/w). After reacting the mixture at room temperature for 1 hour, electrophoresis was performed on a 2% agarose gel at 90 V for 100 minutes. For visualization, the bands were stained with SYBR Gold nucleic acid gel stain (Invitrogen, USA).
The Janus-type dendrimer structure of Comparative Example 1-2 ((+3)2(Ø3)2 conjugate) was used as a control group instead of the JDPZ of Example 5-4 ((+6)2(−6)2 conjugate_1).

[6] = system: HeLa cells; assay: Cytotoxicity, WST-8 assay in HeLa cells; type: cell-based; settings: 0, 2, 4, 8, 16, 32, 64 and 128 μM, 4 hours
Procedure: Since DPZ contains both polyelectrolytes and zwitterions in a single molecule, it is expected to have non-fouling property and low toxicity, while also having advantageous intracellular delivery efficiency due to its interaction with the cell membrane. Cytotoxicity was analyzed first. HeLa cells were subcultured in DMEM supplemented with 10% FBS (fetal bovine serum), dispensed into each well at 1×10^4 cells/well, and cultured at 37° C. for 24 hours. The cells were treated with the samples (Examples 1-1 to 1-6 or Comparative Examples 3-1 and 3-2) at various concentrations and then cultured at 37° C. for 4 hours. WST-8 solution was added to the cultured cells, and absorbance was measured at 450 nm with a microplate reader (Perkin-Elmer, USA) 4 hours later.
Cytotoxicity was analyzed using HeLa cells. Specifically, HeLa cells were subcultured in DMEM supplemented with 10% FBS (fetal bovine serum), dispensed into each well at 1×10^4 cells/well, and cultured at 37° C. for 24 hours. The cells were treated with the samples (Examples 3-1 to 3-6) at various concentrations and then cultured at 37° C. for 4 hours. WST-8 solution was added to the cultured cells, and absorbance was measured at 450 nm with a microplate reader (Perkin-Elmer, USA) 4 hours later.

[7] = 1 μg BSA, various peptide/BSA (w/w) ratios, room temperature 1 hour

Chain of BSA (P02769 25-607): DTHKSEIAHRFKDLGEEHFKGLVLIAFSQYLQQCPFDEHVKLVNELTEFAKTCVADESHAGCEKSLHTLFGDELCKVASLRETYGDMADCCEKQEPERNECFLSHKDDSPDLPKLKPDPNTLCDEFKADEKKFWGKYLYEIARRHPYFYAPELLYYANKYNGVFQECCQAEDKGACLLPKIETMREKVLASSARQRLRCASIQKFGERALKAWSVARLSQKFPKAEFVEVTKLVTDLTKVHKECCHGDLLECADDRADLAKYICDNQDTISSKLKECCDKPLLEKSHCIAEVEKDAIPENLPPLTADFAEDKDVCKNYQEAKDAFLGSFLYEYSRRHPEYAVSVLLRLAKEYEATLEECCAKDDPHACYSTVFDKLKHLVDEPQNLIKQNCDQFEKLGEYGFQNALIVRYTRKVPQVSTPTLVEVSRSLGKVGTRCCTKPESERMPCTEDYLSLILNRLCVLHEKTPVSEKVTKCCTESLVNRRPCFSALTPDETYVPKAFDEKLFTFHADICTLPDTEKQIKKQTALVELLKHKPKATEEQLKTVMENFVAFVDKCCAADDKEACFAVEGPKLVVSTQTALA

Row | Compound | cytotoxicity [1] | Net charge [4] | Zeta potential (mV) [4] | Diameter (nm) in DW [4] | Diameter (nm) in PBS [4] | further results
1 | CC(=O)NCCCCCCCCCCCC(=O)NCCCCC(NC(=O)CCCCCCCCCCCNC(C)=O)C(=O)NCCCCC(NC(=O)C(CCCCNC(=O)CCCCCCCCCCCNC(C)=O)NC(=O)CCCCCCCCCCCNC(C)=O)C(=O)NCCCCC(NC(=O)C(CCCCNC(=O)C(CCCCNC(=O)C(CCCNC(=N)N)NC(=O)C(CCCNC(=N)N)NC(=O)C(CCCNC(=N)N)NC(C)=O)NC(=O)C(CCCNC(=N)N)NC(=O)C(CCCNC(=N)N)NC(=O)C(CCCNC(=N)N)NC(C)=O)NC(=O)C(CCCCNC(=O)C(CCCNC(=N)N)NC(=O)C(CCCNC(=N)N)NC(=O)C(CCCNC(=N)N)NC(C)=O)CC(=O)C(CCCNC(=N)N)NC(=O)C(CCCNC(=N)N)NC(=O)C(CCCNC(=N)N)NC(C)=O)C(N)=O (stereo not drawn) [Comparative Example 1-1] | very high toxicity | – | – | – | – | cellular delivery efficiency [2]: high cellular delivery efficiency
2 | CC(=O)NCCCCCCCCCCCC(=O)NCCCCC(NC(=O)CCCCCCCCCCCNC(C)=O)C(=O)NCCCCC(NC(=O)C(CCCCNC(=O)CCCCCCCCCCCNC(C)=O)NC(=O)CCCCCCCCCCCNC(C)=O)C(=O)NCCCCC(NC(=O)C(CCCCNC(=O)C(CCCCNC(=O)C(CO)NC(=O)C(CO)NC(=O)C(CO)NC(C)=O)NC(=O)C(CCCNC(=N)N)NC(=O)C(CCCNC(=N)N)NC(=O)C(CCCNC(=N)N)NC(C)=O)NC(=O)C(CCCCNC(=O)C(CO)NC(=O)C(CO)NC(=O)C(CO)NC(C)=O)NC(=O)C(CCCNC(=N)N)NC(=O)C(NCCNC(=N)N)NC(=O)C(CCCNC(=N)N)NC(C)=O)C(N)=O (stereo not drawn) [Comparative Example 1-2, reference compound] | very high toxicity | +6 | +52.8 mV | 742.3 nm | 5,688.2 nm | binding to BSA (non-fouling property), EMSA [3, 7]: binds easily to BSA; cellular delivery efficiency [2]: high cellular delivery efficiency; interaction with rRNA (non-fouling property), EMSA [5]: forms a non-specific interaction with rRNA even under the low-concentration rRNA condition
3 | CC(=O)NCCCCCCCCCCCC(=O)NCCCCC(NC(=O)CCCCCCCCCCCNC(C)=O)C(=O)NCCCCC(NC(=O)C(CCCCNC(=O)CCCCCCCCCCCNC(C)=O)NC(=O)CCCCCCCCCCCNC(C)=O)C(=O)NCCCCC(NC(=O)C(CCCCNC(=O)C(CCCCNC(=O)[C@H](CCC(=O)O)NC(=O)[C@H](CCC(=O)O)NC(=O)C(CCC(=O)O)NC(C)=O)NC(=O)[C@H](CCCCC(=N)N)NC(=O)[C@H](CCCNC(=N)N)NC(=O)[C@H](CCCNC(=N)N)NC(C)=O)NC(=O)C(CCCCNC(=O)[C@H](CCCNC(=N)N)NC(=O)[C@H](CCCNC(=N)N)NC(=O)[C@H](CCCNC(=N)N)NC(C)=O)NC(=O)[C@H](CCC(=O)O)NC(=O)[C@H](CCC(=O)O)NC(=O)[C@H](CCC(=O)O)NC(C)=O)C(N)=O (stereo partly drawn) [Example 5-1] | does not exhibit cytotoxicity | 0 | +42.3 mV | 109.8 nm | 75.4 nm | –
4 | CC(=O)NCCCCCCCCCCCC(=O)NCCCCC(NC(=O)CCCCCCCCCCCNC(C)=O)C(=O)NCCCCC(NC(=O)C(CCCCNC(=O)CCCCCCCCCCCNC(C)=O)NC(=O)CCCCCCCCCCCNC(C)=O)C(=O)NCCCCC(NC(=O)C(CCCCNC(=O)C(CCCCNC(=O)[C@H](CCC(=O)O)NC(=O)[C@H](CCC(=O)O)NC(=O)[C@H](CCC(=O)O)NC(=O)[C@H](CCC(=O)O)NC(=O)[C@H](CCC(=O)O)NC(=O)[C@H](CCC(=O)O)NC(C)=O)NC(=O)[C@H](CCCCC(=N)N)NC(=O)[C@H](CCCNC(=N)N)NC(=O)[C@H](CCCNC(=N)N)NC(=O)[C@H](CCCNC(=N)N)NC(=O)[C@H](CCCNC(=N)N)NC(=O)[C@H](CCCNC(=N)N)NC(C)=O)NC(=O)C(CCCCNC(=O)[C@H](CCCNC(=N)N)NC(=O)[C@H](CCCNC(=N)N)NC(=O)[C@H](CCCNC(=N)N)NC(=O)[C@H](CCCNC(=N)N)NC(=O)[C@H](CCCNC(=N)N)NC(=O)[C@H](CCCNC(=N)N)NC(C)=O)NC(=O)[C@H](CCC(=O)O)NC(=O)[C@H](CCC(=O)O)NC(=O)[C@H](CCC(=O)O)NC(=O)[C@H](CCC(=O)O)NC(=O)[C@H](CCC(=O)O)NC(=O)[C@H](CCC(=O)O)NC(C)=O)C(N)=O (stereo partly drawn) [Example 5-4] | – | 0 | +35.2 mV | 649.0 nm | 128.9 nm | binding to BSA (non-fouling property), EMSA [3, 7]: hardly binds to BSA; interaction with rRNA (non-fouling property), EMSA [5]: forms interaction only under high-concentration conditions in which rRNA is present in an amount exceeding 10 times
5 | Ac-EEEEEEEEEEEERRRRRRRRRRRR-NH2 [Comparative Example 3-2] | – | – | – | – | – | cytotoxicity [6]: do not cause toxicity in the cells
6 | Comparative Example 3-1: peptide in which cationic and anionic amino acids are linked alternately (Ac-ERERERERERERERERERERERERERER) | – | – | – | – | – | cytotoxicity [6]: do not cause toxicity in the cells
7 | linear peptide R12: linear peptide with 12 arginines, same number of cationic residues as Example 1-6 (RRRRRRRRRRRR; not fully specified (some residues)) | – | – | – | – | – | binding to BSA (non-fouling property), EMSA ([3]; 0.5 μg BSA, various R/B (arginine/BSA) ratios, room temperature 12 hours): interacts with BSA and induces EMS
